Data published in the nanobody polyreactivity screen of Harvey et al. (2022).

Test: yeast display, Sf9 membrane polyspecificity reagent, FACS + sequencing; frameworks hold sequencing errors
Outline: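 Synthetic nanobody libraries on Saccharomyces cerevisiae BJ5465 were galactose-induced for 36–48 hours, stained 1 hour at 4 °C with 10% biotinylated, detergent-solubilized Sf9 membrane reagent and enriched on streptavidin microbeads. FACS then separated cells into low and high (top ~1%) gates by anti-HA (expression) and streptavidin (reagent binding) fluorescence. Genes were colony-PCR amplified, MiSeq 2 × 250 sequenced and CDR-length filtered. A clone's polyreactivity label is that of its gate of origin.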
In the case of “QVQLVESGGGLVQAGGSLRLSCAASGRIFLGYAMGWYRQAPGKERELVAAITFSGGSTYYADSVKGRFTISRDNAKNTVYLQMNSLKPEDTAVYYCAAPRLRRTYPRNRYDYWGQGTQVTVSS”, the “polyreactivity (PSR sort gate)” value is reported as “low polyreactivity”. For “QVQLVESGGGLVQAGGSLRLSCAASGRTFRTYTMGWYRQAPGKEREFVAAINKSGGTTNYADSVKGRFTISRDNAKNTVYLQMNSLKPEDTAVYYCAKRGRSTYGYDYWGQGTQVTVSS”, the “polyreactivity (PSR sort gate)” value was “high polyreactivity”. For “QVQLVESGGGLVQAGGSLRLSCAASGFNFWRYAMGWYRQAPGKERELVASITSTGGSTYYADSVKGRFTISRDNAKNTVYLQMNSLKPEDTAVYYCAADTFVWADWSWHYYWGQGTQVTVSS”, the “polyreactivity (PSR sort gate)” value was “high polyreactivity”. In the case of “QVQLVESGGGLVQAGGSLRLSCAASGRIFRGYAMGWYRQAPGKERELVATISAIGGSTYADSVKGRFTISRDNAKNTVYLQMNSLKPEDTAVYYCNVRKVYRYQYRFEYWGQGTQVTVSS”, the “polyreactivity (PSR sort gate)” value is reported as “high polyreactivity”. In the case of “QVQLVESGGGLVQAGGSLRLSCAASGFTFYRNAMGWYRQAPGKERELVAAISRGGRTYYADSVKGRFTISRDNAKNTVYLQMNSLKPEDTAVYYCAVGYSGYGSSMDYWGQGTQVTVSS”, the “polyreactivity (PSR sort gate)” value is reported as “high polyreactivity”. For “QVHLVETGRGLLQSGGSLRISCAASGRTFIYNAMGWYRQAPGKERELVARISSGGGNTYYAYSVKWRFTISRDNANNTVYLLMNSLKPEDTAVYYCAIGWRPSFSYYWGQGTQVTVSS”, the “polyreactivity (PSR sort gate)” value was “high polyreactivity”. With “QVQLVESGGGLVQAGGSLRLSCAASGSTFLLNAMGWSRQAPGKDRELVAAITWTGGSTYYADSVKGRFTISRDNAKNTVYLQMNILKPEDTAVYYCAAETYVTSYDYWGQGTQVTVSS” the “polyreactivity (PSR sort gate)” value was “low polyreactivity”. In the case of “QVQLVESGGGLVQAGGSLRLSCAASGFIIDSYAMGWYRQAPGKERELVATITKGGGRTYYADSVKGRFTISRDNAKNTVYLQMNSLKPEDTAVYYCNARGFSRRKGLDYWGQGTQVTVSS”, the “polyreactivity (PSR sort gate)” value is reported as “low polyreactivity”. With “QVQLVESGGGLVHAGGSLRLSCAASGFTFAGYAMGWYRQAPGKERELVAGIRSSGARTYYADSVKGRFTISRDNAKNTVYLQMNSLKPDDTAVYYCAKTDGFYGGYGYWGQCTQVTVSS” the “polyreactivity (PSR sort gate)” value was “low polyreactivity”. With “QVHHVESGGVLVQARVSLRLSCAASGIIIAYYAVGWYGQAPGKESELVAAITSGGSTSYADSVKGRFTISRDNAKNTVYLQMISLKPEDTAVYYCNTDPSGYESGYWGQGTQVTVSS” the “polyreactivity (PSR sort gate)” value was “low polyreactivity”. For “QVQLVESGGGLVQAGGSLRLSCAASGFIFPYYAMGWYRQAPGKERELVAAISGSGGSTYYADSVKGRFTISRDNANYTVYLQMNSLKPEDTAVYYCAASARRLNMGYWGQGTQVTVSS”, the “polyreactivity (PSR sort gate)” value was “high polyreactivity”. For “QVQLVESGGGLVQAGGSLRLSCAASGSIFYSYAMGWYRQAPGKEREFVAAISWSASRTYYADSVKGRFTISRDNAKNTVYLQMNSLKPADTAVYDCAARTYYNRGYYYWGQGTQVTVSS”, the “polyreactivity (PSR sort gate)” value was “high polyreactivity”. For “QVQLVESGGGLVQAGGSLRLSCAASGSTFGHNAMGWYRQAPGKERELVAAIDSGDGTTYADSVKGRFTISRDNAKNTVYLQMNSLKPEDSAVYYWNVDLTTVGLWYYYRPGYDFWGQGTQVTVSS”, the “polyreactivity (PSR sort gate)” value was “low polyreactivity”. In the case of “QVQLVESGGGLVQAGGSLRLSCAASGYTFIYYAMGWYRQAPGTERELVATISIDGSTNYADSVKGRFTISRDNAKNTVYLQMNSLKPEDTAVYYCNRERYEDYDYWGQGTQVTVSS”, the “polyreactivity (PSR sort gate)” value is reported as “high polyreactivity”. In the case of “QGQLEESGGGLVQAGGSLRLSCAASGSTFTYYAMGWYRQATGKERELVAAISWSGTRTYYADSVKGRFTISRDNAKNTDYLQTNSLKPEDTAVYYCAADWRRSGVYTMGYWGQGTQVTVSS”, the “polyreactivity (PSR sort gate)” value is reported as “high polyreactivity”. For “QVQLVESGGGLVQAGGSLRLSCAASGGTFSQYAMGWYRQAPGKERELVARISRRGGSTSYADSVKGRFTISRDNAKNTVYLQMNSLKPEDTAVYYCAKDAPSVYPGRFGNTGGYAYDYWGQGTQVTVSS”, the “polyreactivity (PSR sort gate)” value was “high polyreactivity”. In the case of “QVQLVESGGGLVQAGGSLRLSCAASGRTLASNAMGWYRQAPGKERELVAAINRGGSTYYADSVKGRFTISRDNAKNTVYLQMNSLKPEETAVYYCAVDRYRYPFDYWGQGTQVTVSS”, the “polyreactivity (PSR sort gate)” value is reported as “low polyreactivity”. For “QVQLVESGGGLVQAGGSIRLSCDASGNTFCTYAMGWYRQAPGKERELVATSAKRAGSTYYADSVKGRFTISRDNAKNTVFLQLKCLKPEDTAFYDCARDAYSVYYYVFLHWEYDYWGQVTQVTVSS”, the “polyreactivity (PSR sort gate)” value was “high polyreactivity”. With “QVQLVESGGGLVQAGGSLRLSCAASGFIFVPYAMGWYRQAPGKERELVAAISSSGGSTNYTDSVKGRFTISRDNAKNTVYLQMISLKPEDTAVYYCAAATWYVNPTHFNRYSEFYYWGQGTQVTVSS” the “polyreactivity (PSR sort gate)” value was “low polyreactivity”. For “QVQLVESGGGLVQAGGSLRLSCAASGIIFYDYAMGWYRQAPGKERELVAAISRSGGSTYYADSVKGRFTISRDNAKNTVYLQMNSLKPEDTAVYYCNADEVVWGYNYWGQGTQVTVSS”, the “polyreactivity (PSR sort gate)” value was “low polyreactivity”. In the case of “QVQLVESGGGLVQAGGSLRLTCAASGRTFALYAMGWYRQAPGKERELVAGITGRGGTTHYADSVKGRFTISRDYAKNTVYLQMNSLKPEDTAVYYCATTQSWRVPYRRLGYWGQGTQVTVSS”, the “polyreactivity (PSR sort gate)” value is reported as “low polyreactivity”. For “QVQLEESGGGLVQAGGSLRLSCPASGRTFHGYAMGSYRQAPGKERELVAAITGTGGRTYYADSVKGRFTISRDNAKNTVYLQMNSLKPEDTAVYYCAARPWIKSGYWGQGTQVTVSS”, the “polyreactivity (PSR sort gate)” value was “high polyreactivity”. In the case of “QVQLVDSGGGLVQAGGSLRLSCAASGSTFKINAMGWYRQAPGKERELVAAISSRGGPTYYADSVKGRFTISRDNAKNTVYLQMNRLKPEDTAVYYSAKRRGGSRPYYYWGQGTQVTVSS”, the “polyreactivity (PSR sort gate)” value is reported as “high polyreactivity”. With “QVQLVESGGGLVQAGGSLRLSCAASGNIFETNAMGWYRQAPVKERELVAAISASGGSTYYADSVKGRFTISRDNAKNNVYLQMNSLKPEDTAVYYCNDRVDSYYGDAFDYWGQGTQVTVSS” the “polyreactivity (PSR sort gate)” value was “high polyreactivity”. In the case of “QVQLVESGGGLDQAGGSLRLSSAASGRIFSKSAMGLYRQAPGKETELVAAMTSGGRTYYADSVKGRFTISRDIAKNTVYLQMNSLKPEDTAVYYCAARYVQVVRKFGYWVQGTQVTVSS”, the “polyreactivity (PSR sort gate)” value is reported as “high polyreactivity”. With “QVQLVESGGGLVQAGGSLRLSGAASGFIFGSYAMGWYRQAPGKERELVAAISRSGGRTYYADSVKGRFTISRDNAKNTVYLQMNSLKPEYTAVYYCNAVGYGVFFRSSDRTKFDYWGQGTQVTVSS” the “polyreactivity (PSR sort gate)” value was “high polyreactivity”. With “QVQLVESGGGLVQAGGSLRLSCAASGITFVYYTMGWYRQAPGKERELVASITWDGGSTYYADSVKGRFTISRDNAKNTVYLQMNSLKPEDTAVYYCNRDRVSGGKYNYWGQGTQVTVSS” the “polyreactivity (PSR sort gate)” value was “low polyreactivity”. With “QVQLVESGGGLVQAAGRLRLSCAASGRIFQWNAMGWSRQAPGKERQLVATISSRGGSTYYADSVKGRFTISRDNEKITVYLQMNSLIPEDTAVYYCAARYYAKYRSYDYWGQGSQVTVSS” the “polyreactivity (PSR sort gate)” value was “high polyreactivity”. For “QVQLVESGGGLVQAGGSLRLSCAASGSIFSKNAIGWYRQAPGKERELVDAISASGASTYYADSVKGRFTISRDNEKNTVYLQMNSLKPEDTAVYYCNADVSGVSSYGRSYEFYYWGQGTQVTVSS”, the “polyreactivity (PSR sort gate)” value was “low polyreactivity”. In the case of “QVQLVESVGGLVQAGGSLRLSCAASGSTFWTNAMGLYRQAPGKERELVATISKTTGRTYYADSVKGRFTISRDNAKNTVYLQMNSLKPEDTAVYYCAAEPYSWDTWVDYDYWGQGTQVTVSS”, the “polyreactivity (PSR sort gate)” value is reported as “low polyreactivity”. With “QVQLVESGGGLVQAGVSLRLSCAASGFTFQAYAMGWYRQAPGKERELVAAIRSRGDSTYYADSVKGRFTISRDNSKNTVYLQMNSLKPEDTAVYYCNVLGYSYWGQGTQVTVSS” the “polyreactivity (PSR sort gate)” value was “high polyreactivity”. For “QVQLVESGGGLVQAGGSLRLSCAASGSTFLPYAMGWYRQAPGKERELVAAIRWSVGSTYYADSVKGRFTISRDNAKNTVYLQMNSLIPEVTAGYYCYAVVYVVGDFDYWGQGSQVTVSS”, the “polyreactivity (PSR sort gate)” value was “high polyreactivity”. In the case of “QVQLVESGGGIVQAGGSLRLSCAASGSTFPHNAMGWYRQAPGKERQLVAALSVGGGSTHYADSVKGRFTISRDNAKNTVYLQMNSLKPEDTAVYYCAKDYAYQYSFVTYDYWGQGTQVTVSS”, the “polyreactivity (PSR sort gate)” value is reported as “low polyreactivity”. With “QVQHVESGGGLVQAGGSLRLSCAASGSTYNGYAMGWYRQATGKERELVAAISTSGGSTYYADSVKGRFTISRDNAKNTVYLQMNSLKPEDTAVYYCATYYGKRYMRRVDYWGQGTQVTVSS” the “polyreactivity (PSR sort gate)” value was “high polyreactivity”. For “QVQLVESGGGLVQAGGSLRLSCAASGFIFYYYTMGWYRQAPGKERELVAAISSSGGRTYYADSVKGRFTISRDNAKNTVYLQMNSLKPEDTAVYYCAALYRWNQFPYFKGGYWGQGTQVTVSS”, the “polyreactivity (PSR sort gate)” value was “high polyreactivity”. With “QVQLVESGGGLVQAGGSLRLSCAASGFIFTYYAMGWYRQAPGKERELVASITISGGSTYYADSVKGRFTISRDNAKNTVYLQMNSLKPEDTAVYYCNVVPWYYGYDYWGQGTQVTVSS” the “polyreactivity (PSR sort gate)” value was “high polyreactivity”. With “QVQHVQSGGGLVQAGGSLRLSCAASGSTFPGYAMGWYRQDPGKEREFVAAISTSGGRTYYADSVKGRFTISRDNAKNTVYVQMNSLKPEDTAVYFCNADRYSQYSHSRYDYWGQGTQVTVSS” the “polyreactivity (PSR sort gate)” value was “high polyreactivity”. With “QVQLVESGGGLVQAGGSLRLSCAASGYTFTQNAMGWYRQAPGQERELVASLTSGGSTDYADSVKGRFTISRDNAKNTVYLQMNSVKPEDTAVYYCAAGTATDVASIGATKDYDYWGQVTQVTVSS” the “polyreactivity (PSR sort gate)” value was “low polyreactivity”. With “QVQLVESGGGLVQAGGSLRLSCAASGRISTRYTMGWYRQAPRKERELVAAISGNAGRTYYADSVKGRFTISRDNAKNTVYLEMNSLKPADTAVYYCARESGYRAYEIQFYYWGQGTQVTVSS” the “polyreactivity (PSR sort gate)” value was “high polyreactivity”. With “QVQLVESGGGLVQAGGSLRLSCAASGITFYDNAMGWYRPAPGKEWELVAGISYDGDSTYADSVKGRFTISRDNAKNTVYLQINSLKPEDTAVYYCAALGPYDWLWAGDYWGQGTQVTVSS” the “polyreactivity (PSR sort gate)” value was “low polyreactivity”. In the case of “QVQLVESGGGLVQAGGSLRLSCAASGRIFEHYAMGWYRQAPGKERELVAAITVSGGSTYYADSVKGRFTISRDNAKNTVYLQMNSLKPEDTAVYYCNADQRDYGSYVTKLDYWGQGTQVTVSS”, the “polyreactivity (PSR sort gate)” value is reported as “low polyreactivity”.
